Patent US20260241018A1 (BIOCYTOGEN PHARMACEUTICALS BEIJING, published 2026)

Columns and labels:
[1] = molecular target: T1, monkey (Macaca fascicularis) 5T4 expressed on CHO-S cells (CHO-fas5T4 cells) (monkey (Macaca fascicularis), UniProt Q4R8Y9 35-355); assay: flow cytometry, CHO-fas5T4 cells
T1 construct: also called monkey 5T4
T1 sequence: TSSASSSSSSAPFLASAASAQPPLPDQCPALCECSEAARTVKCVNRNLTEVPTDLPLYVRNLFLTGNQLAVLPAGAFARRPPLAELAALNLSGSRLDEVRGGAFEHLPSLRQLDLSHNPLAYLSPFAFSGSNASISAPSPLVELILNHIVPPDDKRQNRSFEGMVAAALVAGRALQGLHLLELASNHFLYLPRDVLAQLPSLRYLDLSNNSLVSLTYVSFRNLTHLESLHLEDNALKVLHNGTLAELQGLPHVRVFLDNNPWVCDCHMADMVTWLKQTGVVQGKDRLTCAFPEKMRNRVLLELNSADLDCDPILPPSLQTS
Description: CHO-h5T4 cells, CHO-m5T4 cells, CHO-fas5T4 cells or CHO-d5T4 cells were transferred to a 96-well plate at a density of 2×10⁵ cells/well respectively. The anti-5T4 antibodies were added to the 96-well plate, and incubated at 4° C. for 30 min. Then, the cells were incubated with the secondary antibody anti-hlgG-Fc-Alex Flour 647 (RL1-H) (Jackson ImmunoResearch Laboratories, Inc., Cat #: 109-606-170) at 4° C. in the dark for 15 minutes before flow cytometry analysis.

[2] = molecular target: T2, h5T4-His protein (human, UniProt Q13641 32-355, limits assumed); assay: epitope binding assay, h5T4-His captured; binder = analyte 2; competitor (analyte 1): 35C6
T2 construct: also called His-tagged human 5T4 protein; not shown: His tag
T2 sequence (looked up): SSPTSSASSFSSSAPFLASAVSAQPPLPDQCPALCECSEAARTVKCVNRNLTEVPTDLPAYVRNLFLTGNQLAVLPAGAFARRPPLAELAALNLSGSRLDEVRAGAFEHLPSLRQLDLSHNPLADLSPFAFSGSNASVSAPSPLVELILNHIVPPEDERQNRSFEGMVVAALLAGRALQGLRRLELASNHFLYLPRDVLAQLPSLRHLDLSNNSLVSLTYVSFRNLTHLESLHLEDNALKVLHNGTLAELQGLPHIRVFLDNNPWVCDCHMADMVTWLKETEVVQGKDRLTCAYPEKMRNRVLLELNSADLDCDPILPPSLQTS
Description: Epitope binding assays were performed using ForteBio Octet system to determine whether two anti-5T4 antibodies target the same or overlapping epitopes. 1×HBS-EP+buffer (10 mM 4-(2-hydroxyethyl)-1-piperazineethanesulfonic acid (HEPES), 150 mM NaCl, 3 mM ethylenediaminetetraacetic acid (EDTA) and 0.05% P20, pH7.4) diluted from HBS-EP+buffer (10×) was used as the running buffer throughout the experiment. About 50 RU of h5T4-His protein was captured at a flow rate of 10 μL/min, and 200 nM of the tested antibody was injected at a flow rate of 30 μL/min to bind the ligand. Another comparison antibody was injected under the same conditions to determine whether the binding of different antibodies interfered with each other. The binding time was 180 s for each antibody.
The binding value of each antibody was obtained using Data Analysis HT 12.0. To quantify the interference of one antibody binding to another, a binding ratio was calculated to compare each pair of antibodies. The binding ratio is defined as the binding value of the second antibody (analyte 2), divided by the binding value of the first antibody (analyte 1). […] In general, antibody pairs that interfere with each other have the same or overlapping epitopes.

[3] = molecular target: T3, 5T4 on NCI-H226 cells, NCI-H2030 cells and HCC827 cells (UniProt Q13641 32-420, limits assumed); assay: flow cytometry on HCC827 cells, Alexa Fluor 647 anti-human IgG Fc secondary antibody, MFI
T3 construct: whole, on cells
T3 sequence (looked up): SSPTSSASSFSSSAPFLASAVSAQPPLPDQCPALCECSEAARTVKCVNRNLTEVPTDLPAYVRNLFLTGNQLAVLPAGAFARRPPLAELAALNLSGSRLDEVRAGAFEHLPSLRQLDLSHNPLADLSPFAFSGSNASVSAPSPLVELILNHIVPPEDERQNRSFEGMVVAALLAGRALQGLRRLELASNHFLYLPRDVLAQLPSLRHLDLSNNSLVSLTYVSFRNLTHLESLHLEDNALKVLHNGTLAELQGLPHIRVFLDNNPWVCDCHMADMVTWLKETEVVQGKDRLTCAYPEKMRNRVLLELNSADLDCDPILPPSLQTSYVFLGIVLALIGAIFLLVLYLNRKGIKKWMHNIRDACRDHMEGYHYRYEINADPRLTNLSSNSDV
Description: NCI-H226 cells, NCI-H2030 cells or HCC827 cells were plated in a 96-well plate at a density of 2×10⁵ cells/well. Serially diluted purified anti-5T4 antibody 32G1 or the positive control PF06263507 analog-SI (maximum concentration: 20 μg/mL, 2-fold dilutions, 12 gradients) were added to each well and were incubated at 4° C. for 30 minutes. Then, after one wash with PBS, the cells were incubated with the secondary antibody Alexa Fluor® 647 anti human IgG Fcγ (Jackson ImmunoResearch Laboratories, Inc., Cat #: 109-606-170) at 4° C. for 15 minutes before flow cytometry analysis.
The cells were collected, and the mean fluorescence intensity (MFI) was determined.

B1: 32G1 (antibody, V domains shown)
VH: QVQLVQSGGGLVKPGGSLRLSCVASGFTFSDYYMNWVRQAPGKGLEWISYVGTESIYTYYADTVKGRFTISRDNAKNSLYLQMNSLRAEDTALYYCARARDYNLYGMDVWGQGTTVTVSS
VL: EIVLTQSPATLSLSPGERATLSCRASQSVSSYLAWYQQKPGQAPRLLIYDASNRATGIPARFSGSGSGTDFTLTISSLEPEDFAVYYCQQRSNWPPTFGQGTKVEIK
notes: also called anti-5T4 antibody 32G1
Percentage of Positive Cells [1]: 53.2% | binding ratio [2]: 1.03 | EC50 (read off the curve) [3]: ~0.8 µg/mL
